According to paper PMC10999750, “Structural basis for nuclear import of bat adeno-associated virus capsid protein” (The Journal of General Virology, 2024):
Where no end group is shown, it is not given here. The star is where a group is joined. FITC = O=C1OC2(c3ccc(O)cc3Oc3cc(O)ccc32)c2ccc(NC(=S)*)cc21; Ahx = NCCCCCC(=O)O

Experiments:
[1] = molecular target: T1, Mouse importin α2 lacking the IBB domain (mImpα2DIBB) (mouse, UniProt P52293 70-529); assay: crystal structure; co-purified complex of AAV 09YN Cap-BR and IMPα2; hanging drop, 0.75 M Na citrate, 0.1 M HEPES pH 7.5, 22 °C; 2.4 Å; conditions: both partners purified
[2] = molecular target: T1, Mouse importin α2 lacking the IBB …; assay: fluorescence polarisation; FITC-tagged peptide ('2 nm' [sic]) with importin two-fold serially diluted from 4.5 µM across 23 wells, 200 µl, GST Buffer A (50 mM Tris, 125 mM NaCl); three independent experiments; conditions: both partners purified

B1: AAV 09YN Cap-BR (N-terminal domain fragment of AAV 09YN VP1 encompassing basic regions 1-3, residues 112-169) (domain or fragment)
chain: ANALFQAKKRVLEPFGLVEGEPEPKKTPSVKRPHASPDSSSGVGKKGDQPARKRLDFG
notes: not shown: GST, N-terminal, cleaved
[1]
  binding result: binds

B2: Synthetic FITC labelled AAV 09YN Cap-BR peptide (residues 117-167) (peptide)
peptide: {FITC-Ahx}-QAKKRVLEPFGLVEGEPEPKKTPSVKRPHASPDSSSGVGKKGDQPARKRLD
notes: also called FITC-tagged AAV 09YN Cap-BR peptide; non-mutated 09YN Cap-BR; source: synthetic peptide (GenScript)
[2]
  Kd: 656 nM
